Common to all, as to test: two-hybrid
Assay [1] addresses AP47 in pGBT9 (two-hybrid GAL4 DNA binding domain fusion) (UniProt P35585).
Assay [2] has as its target AP50 in pGBT9 (two-hybrid GAL4 DNA binding domain fusion) (UniProt P84092).
The target in assay [3] is αγα chimera in pGBT9 (two-hybrid GAL4 DNA binding domain fusion) (not stated | bovine) (UniProt P17427).
Chain of UniProt P17427 (P17427 whole entry, change not shown, the tested form may be a part): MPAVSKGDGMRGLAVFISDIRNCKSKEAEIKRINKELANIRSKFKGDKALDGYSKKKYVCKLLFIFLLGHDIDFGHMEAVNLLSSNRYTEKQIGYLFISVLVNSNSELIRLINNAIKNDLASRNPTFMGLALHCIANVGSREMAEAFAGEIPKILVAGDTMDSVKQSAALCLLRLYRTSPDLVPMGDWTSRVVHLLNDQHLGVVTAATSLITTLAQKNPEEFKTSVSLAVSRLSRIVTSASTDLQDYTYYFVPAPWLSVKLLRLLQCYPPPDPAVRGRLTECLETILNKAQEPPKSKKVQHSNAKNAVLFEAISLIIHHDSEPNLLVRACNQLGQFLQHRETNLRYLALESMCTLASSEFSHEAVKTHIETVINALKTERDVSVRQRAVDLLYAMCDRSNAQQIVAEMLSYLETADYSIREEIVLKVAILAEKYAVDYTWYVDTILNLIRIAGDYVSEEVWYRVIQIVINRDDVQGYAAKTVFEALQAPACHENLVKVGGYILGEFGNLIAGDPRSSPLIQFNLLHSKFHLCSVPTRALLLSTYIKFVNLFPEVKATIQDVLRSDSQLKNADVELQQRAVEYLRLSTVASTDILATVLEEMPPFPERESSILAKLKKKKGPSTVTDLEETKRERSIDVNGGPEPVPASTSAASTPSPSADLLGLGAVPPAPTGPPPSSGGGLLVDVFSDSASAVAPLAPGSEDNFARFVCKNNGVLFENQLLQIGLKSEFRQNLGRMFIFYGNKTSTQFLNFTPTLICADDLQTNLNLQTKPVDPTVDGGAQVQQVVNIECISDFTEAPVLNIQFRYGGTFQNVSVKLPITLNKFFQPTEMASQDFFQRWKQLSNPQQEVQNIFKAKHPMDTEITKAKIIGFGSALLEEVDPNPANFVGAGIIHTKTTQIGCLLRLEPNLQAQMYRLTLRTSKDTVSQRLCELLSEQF

Chain of UniProt P35585 (P35585 whole entry, the tested form may be a part): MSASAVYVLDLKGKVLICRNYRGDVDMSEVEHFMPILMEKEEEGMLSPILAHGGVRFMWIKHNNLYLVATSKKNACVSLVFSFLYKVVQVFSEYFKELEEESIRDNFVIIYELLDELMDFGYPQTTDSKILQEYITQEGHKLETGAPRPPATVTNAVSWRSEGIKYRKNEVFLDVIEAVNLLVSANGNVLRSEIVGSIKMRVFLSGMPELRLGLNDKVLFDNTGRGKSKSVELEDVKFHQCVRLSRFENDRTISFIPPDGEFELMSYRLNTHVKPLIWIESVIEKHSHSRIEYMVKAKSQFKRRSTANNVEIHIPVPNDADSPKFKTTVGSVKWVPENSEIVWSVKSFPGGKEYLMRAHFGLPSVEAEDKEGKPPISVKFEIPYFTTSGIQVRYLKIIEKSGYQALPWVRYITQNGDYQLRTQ
Chain of UniProt P84092 (P84092 whole entry, the tested form may be a part): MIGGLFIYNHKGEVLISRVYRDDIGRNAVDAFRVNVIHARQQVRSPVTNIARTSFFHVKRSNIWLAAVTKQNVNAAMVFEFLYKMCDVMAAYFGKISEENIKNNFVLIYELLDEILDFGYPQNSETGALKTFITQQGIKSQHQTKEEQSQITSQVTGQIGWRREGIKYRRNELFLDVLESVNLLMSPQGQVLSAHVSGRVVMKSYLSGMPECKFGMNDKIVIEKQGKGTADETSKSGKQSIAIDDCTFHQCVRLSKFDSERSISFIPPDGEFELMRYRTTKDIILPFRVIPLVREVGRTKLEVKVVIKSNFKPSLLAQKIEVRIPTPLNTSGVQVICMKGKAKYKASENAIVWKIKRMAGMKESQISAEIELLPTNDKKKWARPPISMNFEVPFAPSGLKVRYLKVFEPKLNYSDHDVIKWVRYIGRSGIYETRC

“beta-adaptin in pGAD424 (two-hybrid activator fusion) (from UniProt P62944 1-937) (natural protein)”: the beta-galactosidase units is 25.4 units in assay [1], 102 units in assay [2] and 38.6 units in assay [3].

B1: beta'-adaptin in pGAD424 (two-hybrid activator fusion) (natural protein)
chain: MTDSKYFTTTKKGEIFELKAELNSDKKEKKKEAVKKVIASMTVGKDVSALFPDVVNCMQTDNLELKKLVYLYLMNYAKSQPDMAIMAVNTFVKDCEDPNPLIRALAVRTMGCIRVDKITEYLCEPLRKCLKDEDPYVRKTAAVCVAKLHDINAQLVEDQGFLDTLKDLISDSNPMVVANRVAALSEIAESHPSSNLLDLKAQSINKLLTALNECTEWAQIFILDCLGNYMPKDDREAQSICERVTPRLSHANSAVVLSAVKVLMKFMEMLSKDLDYYATLLKKLAPPLVTLLSAEPEPQYVPLRNINLIVQKRPEILKHEMKVFFVKYNDPIYVKLEKLDIMIRLASQANIAQVLAELKEYATEVDVDFVRKAVRAIGRCAIKVEQSAERCVSTLLDLIQTKVNYVVQEAIVVIKDIFRKYPNKYESVIATLCENLDSLDEPEARAAMIWIVGEYAERIDNADELLESFLDGFHDESTQVQLQLLTAIVKLFLKKPTETQELVQQVLSLATQDSDNPDLRDRGYIYWRLLSTDPVAAKEVVLAEKPLISEETDLIEPTLLDELICYIGTLASVYHKPPNAFVEGGRGVVHKSLPPRTASSESTESPEAAPAGAPASDQPDVIPAQGDLLGDLLNLDLGPPVSGPPLAASSVQMGAVDLLGGGLDSLMGDEPEGIGDSNFGAPPASVAAAAPARLGAPVSSGLSDLFDLTSGVGTLSGSYVAPKAVWLPAMKAKGLEISGTFTRQVGSISMDLQLTNKALQVMTDFAIQFNRNSFGLAPAAPLQVHAPLSPNQTVEISLPLNTVGSVMKMEPLNNLQVAVKNNIDVFYFSTLYPLHVLFVEDGKMDRQMFLATWKDIPNENEAQFQIRDCPLNTEAASSKLQSSNIFTVAKRTVEGQDMLYQSLKLTNGIWVLAELRIQPGNPSFTLSLKCRAPEVSQHDIQAYETILKN
As to B1, the beta-galactosidase units in assay [3] came out at 22.3 units.

The values above are taken from article PMC2120623.
